Assay results published in the supplement of paper PMC10567573.

B1: RAB11A (parent)
chain: AVPTDEARAFAEKNGLSFIETSAL

Variants of: B1
Assay: protein stability index of a GFP-peptide fusion (GPS, HEK-293T) (PSI 1-6); higher = more stable
Conditions: c terminus: a fixed tail appended
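Note: lentivirally expressed fusions sorted by FACS into six bins by GFP to DsRed ratio, PSI derived from sequencing read proportions per bin multiplied by bin number.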

Row | Variant | protein stability index
1 | AVPTDEARAFAEKNGNSFIETSAL [L16N] | 4.05
2 | AVPTDEARAFAEKNGPSFIETSAL [L16P] | 4.08
3 | AVPTDEARAFAEKNGQSFIETSAL [L16Q] | 4.2
4 | AVPTDEARAFAEKNGRSFIETSAL [L16R] | 3.8
5 | AVPTDEARAFAEKNGSSFIETSAL [L16S] | 4.35
6 | AVPTDEARAFAEKNGTSFIETSAL [L16T] | 4.14
7 | AVPTDEARAFAEKNGVSFIETSAL [L16V] | 3.73
8 | AVPTDEARAFAEKNGWSFIETSAL [L16W] | 2.6
9 | AVPTDEARAFAEKNGYSFIETSAL [L16Y] | 3.14
10 | AVPTDEARAFAEKNGLAFIETSAL [S17A] | 2.53
11 | AVPTDEARAFAEKNGLCFIETSAL [S17C] | 2.52
12 | AVPTDEARAFAEKNGLDFIETSAL [S17D] | 3.14
13 | AVPTDEARAFAEKNGLEFIETSAL [S17E] | 4.3
14 | AVPTDEARAFAEKNGLFFIETSAL [S17F] | 2.62
15 | AVPTDEARAFAEKNGLGFIETSAL [S17G] | 3.53
16 | AVPTDEARAFAEKNGLHFIETSAL [S17H] | 3.19
17 | AVPTDEARAFAEKNGLIFIETSAL [S17I] | 2.73
18 | AVPTDEARAFAEKNGLKFIETSAL [S17K] | 3.23
19 | AVPTDEARAFAEKNGLLFIETSAL [S17L] | 2.7
20 | AVPTDEARAFAEKNGLMFIETSAL [S17M] | 2.81
21 | AVPTDEARAFAEKNGLNFIETSAL [S17N] | 1.56
22 | AVPTDEARAFAEKNGLPFIETSAL [S17P] | 4.38
23 | AVPTDEARAFAEKNGLQFIETSAL [S17Q] | 4.02
24 | AVPTDEARAFAEKNGLRFIETSAL [S17R] | 3.08

Row | Variant | protein stability index
25 | AVPTDEARAFAEKNGLTFIETSAL [S17T] | 3.36
26 | AVPTDEARAFAEKNGLVFIETSAL [S17V] | 2.79
27 | AVPTDEARAFAEKNGLWFIETSAL [S17W] | 2.66
28 | AVPTDEARAFAEKNGLYFIETSAL [S17Y] | 2.97
29 | AVPTDEARAFAEKNGLSAIETSAL [F18A] | 4.62
30 | AVPTDEARAFAEKNGLSCIETSAL [F18C] | 4.29
31 | AVPTDEARAFAEKNGLSDIETSAL [F18D] | 5.03
32 | AVPTDEARAFAEKNGLSEIETSAL [F18E] | 4.57
33 | AVPTDEARAFAEKNGLSGIETSAL [F18G] | 4.35
34 | AVPTDEARAFAEKNGLSHIETSAL [F18H] | 4.72
35 | AVPTDEARAFAEKNGLSIIETSAL [F18I] | 3.6
36 | AVPTDEARAFAEKNGLSKIETSAL [F18K] | 4.2
37 | AVPTDEARAFAEKNGLSLIETSAL [F18L] | 4.14
38 | AVPTDEARAFAEKNGLSMIETSAL [F18M] | 3.93
39 | AVPTDEARAFAEKNGLSNIETSAL [F18N] | 4.47
40 | AVPTDEARAFAEKNGLSPIETSAL [F18P] | 4.68
41 | AVPTDEARAFAEKNGLSQIETSAL [F18Q] | 4.33
42 | AVPTDEARAFAEKNGLSRIETSAL [F18R] | 4.22
43 | AVPTDEARAFAEKNGLSSIETSAL [F18S] | 4.62
44 | AVPTDEARAFAEKNGLSTIETSAL [F18T] | 4.32
45 | AVPTDEARAFAEKNGLSVIETSAL [F18V] | 4.35
46 | AVPTDEARAFAEKNGLSWIETSAL [F18W] | 3.46
47 | AVPTDEARAFAEKNGLSYIETSAL [F18Y] | 2.62
48 | AVPTDEARAFAEKNGLSFAETSAL [I19A] | 4.39

Row | Variant | protein stability index
49 | AVPTDEARAFAEKNGLSFCETSAL [I19C] | 3.45
50 | AVPTDEARAFAEKNGLSFDETSAL [I19D] | 4.56
51 | AVPTDEARAFAEKNGLSFEETSAL [I19E] | 4.24
52 | AVPTDEARAFAEKNGLSFFETSAL [I19F] | 3.4
53 | AVPTDEARAFAEKNGLSFGETSAL [I19G] | 4.5
54 | AVPTDEARAFAEKNGLSFHETSAL [I19H] | 2.46
55 | AVPTDEARAFAEKNGLSFKETSAL [I19K] | 4.12
56 | AVPTDEARAFAEKNGLSFLETSAL [I19L] | 3.71
57 | AVPTDEARAFAEKNGLSFMETSAL [I19M] | 3.91
58 | AVPTDEARAFAEKNGLSFNETSAL [I19N] | 4.43
59 | AVPTDEARAFAEKNGLSFPETSAL [I19P] | 4.5
60 | AVPTDEARAFAEKNGLSFQETSAL [I19Q] | 3.6
61 | AVPTDEARAFAEKNGLSFRETSAL [I19R] | 3.85
62 | AVPTDEARAFAEKNGLSFSETSAL [I19S] | 4.41
63 | AVPTDEARAFAEKNGLSFTETSAL [I19T] | 4.17
64 | AVPTDEARAFAEKNGLSFVETSAL [I19V] | 3
65 | AVPTDEARAFAEKNGLSFWETSAL [I19W] | 3.92
66 | AVPTDEARAFAEKNGLSFYETSAL [I19Y] | 3.81
67 | AVPTDEARAFAEKNGLSFIATSAL [E20A] | 2.27
68 | AVPTDEARAFAEKNGLSFICTSAL [E20C] | 2.01
69 | AVPTDEARAFAEKNGLSFIDTSAL [E20D] | 2.08
70 | AVPTDEARAFAEKNGLSFIFTSAL [E20F] | 1.79
71 | AVPTDEARAFAEKNGLSFIGTSAL [E20G] | 2.02
72 | AVPTDEARAFAEKNGLSFIHTSAL [E20H] | 1.87

Row | Variant | protein stability index
73 | AVPTDEARAFAEKNGLSFIITSAL [E20I] | 1.8
74 | AVPTDEARAFAEKNGLSFIKTSAL [E20K] | 2.8
75 | AVPTDEARAFAEKNGLSFILTSAL [E20L] | 1.74
76 | AVPTDEARAFAEKNGLSFIMTSAL [E20M] | 1.81
77 | AVPTDEARAFAEKNGLSFINTSAL [E20N] | 2.24
78 | AVPTDEARAFAEKNGLSFIPTSAL [E20P] | 3.12
79 | AVPTDEARAFAEKNGLSFIQTSAL [E20Q] | 2.34
80 | AVPTDEARAFAEKNGLSFIRTSAL [E20R] | 2.5
81 | AVPTDEARAFAEKNGLSFISTSAL [E20S] | 3.01
82 | AVPTDEARAFAEKNGLSFITTSAL [E20T] | 2.41
83 | AVPTDEARAFAEKNGLSFIVTSAL [E20V] | 1.86
84 | AVPTDEARAFAEKNGLSFIWTSAL [E20W] | 1.44
85 | AVPTDEARAFAEKNGLSFIYTSAL [E20Y] | 2.35
86 | AVPTDEARAFAEKNGLSFIEASAL [T21A] | 2.49
87 | AVPTDEARAFAEKNGLSFIECSAL [T21C] | 2.87
88 | AVPTDEARAFAEKNGLSFIEDSAL [T21D] | 4.45
89 | AVPTDEARAFAEKNGLSFIEESAL [T21E] | 4.34
90 | AVPTDEARAFAEKNGLSFIEFSAL [T21F] | 2.37
91 | AVPTDEARAFAEKNGLSFIEGSAL [T21G] | 1.78
92 | AVPTDEARAFAEKNGLSFIEHSAL [T21H] | 2.67
93 | AVPTDEARAFAEKNGLSFIEISAL [T21I] | 1.8
94 | AVPTDEARAFAEKNGLSFIEKSAL [T21K] | 3.37
